For data set [1], the target named is RNF4 C55S, C59S tagged with glycine-cysteine at its C terminus (RNF4-C196). Briefly: cross-linking; disulfide dimer formation of RNF4-C196; 0.062, 0.12, 0.25, 0.5 and 1 μM protein, room temperature, 2 hr, no reducing agents, no SUMO; nonreducing SDS-PAGE and western blotting with an RNF4 antibody; the species is sensitive to DTT.
Data set [2] concerns the target T1, RNF4 wild type, recombinant, with N-terminal fusions of ECFP or YFP, O88846.
T1 chain: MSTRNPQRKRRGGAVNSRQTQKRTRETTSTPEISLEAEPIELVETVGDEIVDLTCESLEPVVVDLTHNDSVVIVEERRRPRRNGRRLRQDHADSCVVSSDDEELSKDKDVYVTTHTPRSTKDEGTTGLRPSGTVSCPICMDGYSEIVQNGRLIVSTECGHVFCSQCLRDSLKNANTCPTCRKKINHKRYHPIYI
Briefly: FRET or BRET; in vitro FRET in the absence of poly-SUMO-2; YFP-RNF4 fixed at 0.5 μM, ECFP-RNF4 increased in 0.05 μM increments from 0 to 0.5 μM; triplicates; fit to a single binding site model; monomer to dimer. The note with it: remark: other sources report otherwise. Background: Bioluminescence resonance energy transfer reports proximity on the nanometre scale.

The target of data set [3] is T1, RNF4 wild type, recombinant, with …. Briefly: FRET or BRET; in vitro FRET in the presence of poly-SUMO-2; YFP-RNF4 fixed at 0.5 μM, ECFP-RNF4 increased in 0.05 μM increments from 0 to 0.5 μM; triplicates; apparent Kd from a fit to a single binding site model. The note with it: remark: other sources report otherwise.
Data set [4] deals with the molecule itself. Briefly: FRET; with polySUMO-2.

By stoichiometry N is commonly meant a count of units in the complex or per binding partner.

As for “RNF4 C55S, C59S tagged with glycine-cysteine at its C terminus (RNF4-C196) (enzyme)”, the stoichiometry N in data set [1] is 2.

B1: RNF4 wild type, recombinant, with N-terminal fusions of ECFP or YFP, O88846 1-194 (enzyme)
chain: MSTRNPQRKRRGGAVNSRQTQKRTRETTSTPEISLEAEPIELVETVGDEIVDLTCESLEPVVVDLTHNDSVVIVEERRRPRRNGRRLRQDHADSCVVSSDDEELSKDKDVYVTTHTPRSTKDEGTTGLRPSGTVSCPICMDGYSEIVQNGRLIVSTECGHVFCSQCLRDSLKNANTCPTCRKKINHKRYHPIYI
Take B1: the values for the Kd in data set [2] and in data set [3] were 180 nM and 60 nM, respectively.

B2: RNF4 I194A, dimerization-deficient mutant, recombinant, with N-terminal fusions of ECFP or YFP (enzyme)
chain: MSTRNPQRKRRGGAVNSRQTQKRTRETTSTPEISLEAEPIELVETVGDEIVDLTCESLEPVVVDLTHNDSVVIVEERRRPRRNGRRLRQDHADSCVVSSDDEELSKDKDVYVTTHTPRSTKDEGTTGLRPSGTVSCPICMDGYSEIVQNGRLIVSTECGHVFCSQCLRDSLKNANTCPTCRKKINHKRYHPIYA
Molecule B2 came in with a Kd in data set [4] of 166 nM.
